In patent US20230192860A1 (Bristol-Myers Squibb, published 2023) one finds Kd, koff and kon data, which are given here for 22 molecules.

Numbering of substitutions follows the chain as printed. Numbers in names are those of the source.

Experiment [1] deals with T1, hVISTA-ECD 6-His tag (human, UniProt Q9H7M9 33-193).
T1 construct: also called monovalent hVISTA-ECD; human VISTA
Nature of the experiment: SPR 37 C, Ab on Protein A, pH 6.0.

In experiment [2] the target is T1, hVISTA-ECD 6-His tag. Briefly: SPR 37 C, Ab on Protein A, pH 7.4.
Experiment [3] has as its target T2, monovalent hVISTA-ECD with polyhistidine tail (SEQ ID NO: 325) (human, UniProt Q9H7M9 33-193).
T2 construct: also called hVISTA-ECD 6-His tag; human VISTA
Briefly: SPR, mAb captured on Protein A chip, hVISTA injected, PBST pH 6.0, 37 C. Background: In SPR one partner is held on a chip, and binding of the other changes the refractive index at the surface.

The target in experiment [4] is T2, monovalent hVISTA-ECD with …. Briefly: SPR, mAb captured on Protein A chip, hVISTA injected, PBST pH 7.4, 37 C.

T1 sequence (Q9H7M9 other isoform, or with tags, fused parts or gaps limits assumed): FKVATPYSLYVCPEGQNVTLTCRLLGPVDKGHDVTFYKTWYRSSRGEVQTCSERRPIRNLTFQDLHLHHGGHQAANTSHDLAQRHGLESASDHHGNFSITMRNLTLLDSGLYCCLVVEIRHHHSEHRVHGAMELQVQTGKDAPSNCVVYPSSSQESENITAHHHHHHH
T2 sequence (Q9H7M9 other isoform, or with tags, fused parts or gaps limits assumed): as above

B1: P1-077847 (P1-068744 H50I E59Y) (antibody, V domains shown)
VH: QVQLVESGGGVVQPGRSLRLSCAASGFTFSEYAMHWVRQAPGKGLEWVAIIWYDGSNKYYADSVKGRFTISRDNSKNTLYLQMNSLRAEDTAVYYCARDSGFYESYYFDEWGQGTLVTVSS
VL: EIVLTQSPATLSLSPGERATLSCRASQSVSSSYLAWYQQKPGQAPRLLIYDASNRATGIPARFSGSGSGTDFTLTISSLEPEDFATYYCQQYNSYPYTFGQGTKLEIK
Broadly, the Kd is the free concentration of one partner at which half of the binding sites on the other are occupied at equilibrium, for simple one-to-one binding. A lower Kd goes with higher affinity. As usually defined, the koff is a measure of how fast the partners let go of each other. High values mean fast dissociation, low ones slow dissociation. By kon is commonly meant the second-order rate constant of association. On to B1, for which, in the experiment with hVISTA-ECD 6-His tag [1], the Kd is 2.7 nM, the off-rate (koff) was 0.0032 s⁻¹ and the kon amounted to 1.2e+06 M⁻¹ s⁻¹. Further, in the experiment with hVISTA-ECD 6-His tag [2], the Kd was 29 nM, the koff was 0.0035 s⁻¹ and the kon came to 120000 M⁻¹ s⁻¹.

B2: P1-061015 (antibody, V domains shown)
VH: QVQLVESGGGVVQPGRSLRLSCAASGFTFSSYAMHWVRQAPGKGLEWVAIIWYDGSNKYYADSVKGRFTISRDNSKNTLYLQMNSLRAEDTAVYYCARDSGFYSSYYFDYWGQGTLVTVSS
VL: B1 VL
notes: captured on a Protein A chip; also called parental antibody
B2: in experiment [3], the Kd is 1.9 nM, the koff was 0.0016 s⁻¹ and the kon was 830000 M⁻¹ s⁻¹. Moreover, in experiment [4], binding was characterised by a dissociation constant (Kd) of 6.4 nM, the koff is 0.0022 s⁻¹ and the kon was found to be 340000 M⁻¹ s⁻¹.

B3: P1-068748 (antibody, V domains shown)
VH: B1 VH with E31H, Y32H, K58D, Y59D, E104D, E110Y
VL: B1 VL
notes: captured on a Protein A chip
For B3, in experiment [3], the Kd stood at 11 nM, the off-rate (koff) is 0.0035 s⁻¹ and the kon was determined as 310000 M⁻¹ s⁻¹. In experiment [4], this molecule displayed a dissociation constant Kd of 600 nM, a koff of 0.032 s⁻¹ and a kon of 54000 M⁻¹ s⁻¹.

B4: P1-077863 (P1-068744 E59Y E102Y) (antibody, V domains shown)
VH: B1 VH with I50H, E110Y
VL: B1 VL
B4: in the experiment with hVISTA-ECD 6-His tag [1], the Kd amounted to 130 nM, the koff is 0.017 s⁻¹ and the kon came out at 140000 M⁻¹ s⁻¹. Further, in the experiment with hVISTA-ECD 6-His tag [2], the dissociation constant (Kd) turned out to be 1100 nM, the koff is 0.055 s⁻¹ and the kon came out at 63000 M⁻¹ s⁻¹.

B5: P1-077891 (P1-068748 H32Y D100S) (antibody, V domains shown)
VH: B1 VH with E31H, K58D, Y59D, E104S, E110Y
VL: B1 VL
notes: Reversion mutant of P1-068748 (Kabat names); captured on a Protein A chip
As for B5, in experiment [3], binding was characterised by a dissociation constant (Kd) of 0.36 nM, the koff worked out at 0.00099 s⁻¹ and the kon is 2.7e+06 M⁻¹ s⁻¹. In experiment [4], the Kd was 2.1 nM, the koff was found to be 0.0025 s⁻¹ and the kon amounted to 1.2e+06 M⁻¹ s⁻¹.

B6: P1-077865 (P1-068748 H31S) (antibody, V domains shown)
VH: B1 VH with E31S, Y32H, K58D, Y59D, E104D, E110Y
VL: B1 VL
notes: as for B5
Regarding B6, in experiment [3], the Kd turned out to be 5.2 nM, the koff is 0.0028 s⁻¹ and the kon amounted to 540000 M⁻¹ s⁻¹. Moreover, in experiment [4], the Kd turned out to be 410 nM, the koff worked out at 0.028 s⁻¹ and the kon turned out to be 69000 M⁻¹ s⁻¹.

B7: P1-077849 (P1-068744 E59Y E100S) (antibody, V domains shown)
VH: B1 VH with I50H, E104S
VL: B1 VL
In the experiment with hVISTA-ECD 6-His tag [1], B7 came in with a Kd of 220 nM, a koff of 0.11 s⁻¹ and an association rate constant (kon) of 500000 M⁻¹ s⁻¹. Also, in the experiment with hVISTA-ECD 6-His tag [2], the affinity, expressed as Kd, was 6600 nM; the koff is 0.35 s⁻¹; the association rate constant (kon) was 53000 M⁻¹ s⁻¹.

B8: P1-077861 (P1-068744 H50I E102Y) (antibody, V domains shown)
VH: B1 VH with Y60E, E110Y
VL: B1 VL
In the experiment with hVISTA-ECD 6-His tag [1], B8 showed a Kd of 2.6 nM, an off-rate constant (koff) of 0.0023 s⁻¹ and a kon of 870000 M⁻¹ s⁻¹. In the experiment with hVISTA-ECD 6-His tag [2], this molecule yielded a Kd of 26 nM, a koff of 0.0027 s⁻¹ and a kon of 100000 M⁻¹ s⁻¹.

B9: P1-077875 (P1-068748 H31S H32Y) (antibody, V domains shown)
VH: B1 VH with E31S, K58D, Y59D, E104D, E110Y
VL: B1 VL
notes: as for B5
In experiment [3], B9 returned a Kd of 0.94 nM, an off-rate constant (koff) of 0.0018 s⁻¹ and a kon of 1.9e+06 M⁻¹ s⁻¹. In experiment [4], this molecule came in with a Kd of 130 nM, a koff of 0.021 s⁻¹ and a kon of 160000 M⁻¹ s⁻¹.

B10: P1-077881 (P1-068748 D58Y D100S) (antibody, V domains shown)
VH: B1 VH with E31H, Y32H, K58D, E104S, E110Y
VL: B1 VL
notes: as for B5
Turning to B10, in experiment [3], the dissociation constant (Kd) came out at 53 nM, the koff is 0.0034 s⁻¹ and the kon came to 62000 M⁻¹ s⁻¹. For the same molecule, in experiment [4], the affinity, expressed as Kd, was 22 nM; the koff worked out at 0.0036 s⁻¹; the kon is 160000 M⁻¹ s⁻¹.

B11: P1-077877 (P1-068748 H32Y D57K) (antibody, V domains shown)
VH: B1 VH with E31H, Y59D, E104D, E110Y
VL: B1 VL
notes: as for B5
With B11, in experiment [3], binding was put at a Kd of 2.2 nM, the koff was 0.0019 s⁻¹ and the kon is 840000 M⁻¹ s⁻¹. In experiment [4], this molecule yielded an equilibrium dissociation constant (Kd) of 270 nM, a koff of 0.024 s⁻¹ and a kon of 88000 M⁻¹ s⁻¹.

B12: P1-077855 (P1-068744 E31S E59Y) (antibody, V domains shown)
VH: B1 VH with E31S, I50H
VL: B1 VL
With B12, in the experiment with hVISTA-ECD 6-His tag [1], the Kd came to 36 nM, the koff turned out to be 0.0077 s⁻¹ and the kon came to 210000 M⁻¹ s⁻¹. In the experiment with hVISTA-ECD 6-His tag [2], the Kd came to 5200 nM, the koff is 0.061 s⁻¹ and the kon came to 12000 M⁻¹ s⁻¹.

B13: P1-077889 (P1-068748 H32Y D58Y) (antibody, V domains shown)
VH: B1 VH with E31H, K58D, E104D, E110Y
VL: B1 VL
notes: as for B5
In experiment [3], B13 came in with a Kd of 130 nM, a koff of 0.022 s⁻¹ and an association rate constant (kon) of 180000 M⁻¹ s⁻¹. Moreover, in experiment [4], the Kd amounted to 2400 nM, the koff stood at 0.073 s⁻¹ and the kon turned out to be 31000 M⁻¹ s⁻¹.

B14: P1-077857 (P1-068744 E31S E100S) (antibody, V domains shown)
VH: B1 VH with E31S, I50H, Y60E, E104S
VL: B1 VL
For the molecule B14, in the experiment with hVISTA-ECD 6-His tag [1], the Kd stood at 120 nM, the koff was 0.097 s⁻¹ and the kon turned out to be 820000 M⁻¹ s⁻¹. Also, in the experiment with hVISTA-ECD 6-His tag [2], the Kd turned out to be 520 nM, the koff came out at 0.16 s⁻¹ and the kon turned out to be 300000 M⁻¹ s⁻¹.

B15: P1-077869 (P1-068748 D57K) (antibody, V domains shown)
VH: B1 VH with E31H, Y32H, Y59D, E104D, E110Y
VL: B1 VL
notes: as for B5
For B15, in experiment [3], the Kd is 15 nM, the koff stood at 0.0026 s⁻¹ and the kon stood at 170000 M⁻¹ s⁻¹. Further, in experiment [4], the Kd is 980 nM, the koff was determined as 0.027 s⁻¹ and the kon was 28000 M⁻¹ s⁻¹.

B16: P1-077853 (P1-068744 E31S E102Y) (antibody, V domains shown)
VH: B1 VH with E31S, I50H, Y60E, E110Y
VL: B1 VL
In the experiment with hVISTA-ECD 6-His tag [1], B16 showed a Kd of 18 nM, a dissociation rate constant (koff) of 0.0019 s⁻¹ and a kon of 110000 M⁻¹ s⁻¹. In the experiment with hVISTA-ECD 6-His tag [2], this molecule gave a Kd of 1200 nM, a koff of 0.024 s⁻¹ and a kon of 21000 M⁻¹ s⁻¹.

B17: P1-077883 (P1-068748 H31S D57K) (antibody, V domains shown)
VH: B1 VH with E31S, Y32H, Y59D, E104D, E110Y
VL: B1 VL
notes: as for B5
In experiment [3], B17 yielded a Kd of 6.7 nM, a koff of 0.002 s⁻¹ and an association rate constant (kon) of 310000 M⁻¹ s⁻¹. In experiment [4], this molecule registered a Kd of 510 nM, a koff of 0.035 s⁻¹ and a kon of 68000 M⁻¹ s⁻¹.

B18: P1-077887 (P1-068748 H31S D100S) (antibody, V domains shown)
VH: B1 VH with E31S, Y32H, K58D, Y59D, E104S, E110Y
VL: B1 VL
notes: as for B5
In the case of B18, in experiment [3], the Kd turned out to be 0.52 nM, the dissociation rate constant (koff) was determined as 0.0011 s⁻¹ and the kon is 2.1e+06 M⁻¹ s⁻¹. In experiment [4], this molecule displayed a Kd of 3 nM, a dissociation rate constant (koff) of 0.0027 s⁻¹ and a kon of 910000 M⁻¹ s⁻¹.

B19: P1-077867 (P1-068748 H32Y) (antibody, V domains shown)
VH: B1 VH with E31H, K58D, Y59D, E104D, E110Y
VL: B1 VL
notes: as for B5
In experiment [3], B19 displayed a Kd of 2.2 nM, a dissociation rate constant (koff) of 0.0029 s⁻¹ and a kon of 1.3e+06 M⁻¹ s⁻¹. For the same molecule, in experiment [4], the affinity, expressed as Kd, was 230 nM; the koff is 0.026 s⁻¹; the on-rate constant (kon) stood at 120000 M⁻¹ s⁻¹.

B20: P1-077873 (P1-068748 D100S) (antibody, V domains shown)
VH: B1 VH with E31H, Y32H, K58D, Y59D, E104S, E110Y
VL: B1 VL
notes: as for B5
In experiment [3], B20 came in with a Kd of 0.71 nM, a koff of 0.0012 s⁻¹ and a kon of 1.8e+06 M⁻¹ s⁻¹. In addition, in experiment [4], the Kd amounted to 3.6 nM, the dissociation rate constant (koff) was found to be 0.003 s⁻¹ and the kon was found to be 850000 M⁻¹ s⁻¹.

B21: P1-077851 (P1-068744 E100S E102Y) (antibody, V domains shown)
VH: B1 VH with I50H, Y60E, E104S, E110Y
VL: B1 VL
On to B21, for which, in the experiment with hVISTA-ECD 6-His tag [1], the equilibrium dissociation constant (Kd) worked out at 220 nM, the koff is 0.085 s⁻¹ and the kon amounted to 380000 M⁻¹ s⁻¹. In the experiment with hVISTA-ECD 6-His tag [2], this molecule showed a Kd of 2200 nM, a koff of 0.3 s⁻¹ and a kon of 150000 M⁻¹ s⁻¹.

B22: P1-077859 (P1-068744 H50I E100S) (antibody, V domains shown)
VH: B1 VH with Y60E, E104S
VL: B1 VL
In the case of B22, in the experiment with hVISTA-ECD 6-His tag [1], the Kd stood at 2.3 nM, the koff was found to be 0.0032 s⁻¹ and the kon stood at 1.4e+06 M⁻¹ s⁻¹. In the experiment with hVISTA-ECD 6-His tag [2], this molecule registered a Kd of 9.5 nM, a dissociation rate constant (koff) of 0.0044 s⁻¹ and a kon of 460000 M⁻¹ s⁻¹.
